# Assay results: patent US20240067734A1 (Hoffmann-La Roche, published 2024)
# T1: human NKG2D expressed on cells (human, UniProt P26718 1-216)
# T1 construct: the cell type is named under assay; also called NKG2D on NK92 cells; HEK293T human NKG2D
# T1 chain: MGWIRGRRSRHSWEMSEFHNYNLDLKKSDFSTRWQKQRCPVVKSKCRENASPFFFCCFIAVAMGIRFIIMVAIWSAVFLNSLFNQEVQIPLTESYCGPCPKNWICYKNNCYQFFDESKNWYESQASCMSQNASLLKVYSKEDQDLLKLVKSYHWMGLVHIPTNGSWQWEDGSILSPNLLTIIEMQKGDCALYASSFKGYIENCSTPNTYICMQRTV
# Columns and labels:
# [1] = molecular target: T1, human NKG2D expressed on cells; experiment: flow cytometry on NKG2D-positive NK92 cells, anti-human Fc secondary antibody
# Method: Viability of NK92 cells or tumor cells (MKN-45, LS180) was checked and cells were re-suspended and adjusted to a density of 1 mio cells/ml. 100 μl per well of this cell suspension (containing 0.1 mio cells) were seeded into a 96 well round bottom plate. The plate was centrifuged for 4 min at 400×g and the supernatant was removed. Then 40 μl of the diluted antibodies or FACS buffer were added to the cells and incubated for 30 min at 4° C. After the incubation the cells were washed twice with 150 μl FACS buffer per well. […] The cells were incubated for an additional 30 min at 4° C. To remove unbound antibody, the cells were washed again twice with 150 μl per well FACS buffer. To fix the cells, 100 μl of FACS buffer containing 1% PFA were added to the wells. Before measuring, the cells were re-suspended in 150 μl FACS buffer. The fluorescence was measured using a BD flow cytometer.
# di cyNKG2D ECD Fc avi = molecular target: T2, di cyNKG2D ECD Fc avi (cynomolgus, biotinylated at the avi-tag); experiment: SPR Biacore; IgG captured by anti-Fab, antigen analyte; TraceDrawer fit
# T2 construct: Dimeric fusion of cynomolgus NKG2D ECD to the C-terminus of an avi-tagged human IgG1 Fc; also called recombinant cynomolgus NKG2D
# Method: (§1) Around 1500 resonance units (RU) of the capture antibody (10 μg/ml human Fab Capture Kit, GE Healthcare Life Sciences, #28958325) were coupled onto a CM5 chip (GE Healthcare, #BR-1005-30) using a BIACORE® B4000 instrument (GE Healthcare) at pH 5.0 by using an amine coupling kit supplied by GE Healthcare. The sample and system buffer was PBS-T (10 mM phosphate buffered saline including 0.05% TWEEN® (polysorbate) 20) pH 7.4. The flow cells were set to 25° C.—and the sample block set to 12° C.—and primed twice with running buffer. The antibody was captured by injecting a ˜10 μg/ml solution for 60 sec at a flow rate of 10 μl/min. Association was measured by injection of di huNKG2D ECD Fc avi (SEQ ID NO: 96) or di cyNKG2D ECD Fc avi (SEQ ID NO: 97) in various concentrations in solution for 180 s at a flow rate of 30 μl/min starting with 600 nM, 300 nM, 150 nM following […] dilutions. The dissociation phase was monitored for up to 450 s and triggered by switching from the sample solution to running buffer. The surface was regenerated by 2×90 s washing with a glycine pH 2.1 solution at a flow rate of 30 μl/min and an additional stabilization period of 180 s. Bulk refractive index differences were corrected by subtracting the response obtained from an anti-human Fab surface. Blank injections were also subtracted (=double referencing). For calculation of KD, kₐ and kd (see Table 8), the Langmuir 1:1 model in the BIACORE® 4000 Evaluation software 1.1 (GE Healthcare) or TraceDrawer 1.6.1 (Ridgeview Instruments AB) were used.
# [2] = molecular target: T1, human NKG2D expressed on cells; experiment: flow cytometry; NK92 cells; NK92 cells, Table 11 immune-cell binding (concentration dependent)
# di huNKG2D ECD Fc avi = molecular target: T3, di huNKG2D ECD Fc avi (human, biotinylated at the avi-tag); experiment: SPR Biacore; IgG captured by anti-Fab, antigen analyte; TraceDrawer fit
# T3 construct: Dimeric fusion of human NKG2D ECD to the C-terminus of an avi-tagged human IgG1 Fc
# Method: as §1
# T2 sequence (chain, as listed by the source limits assumed): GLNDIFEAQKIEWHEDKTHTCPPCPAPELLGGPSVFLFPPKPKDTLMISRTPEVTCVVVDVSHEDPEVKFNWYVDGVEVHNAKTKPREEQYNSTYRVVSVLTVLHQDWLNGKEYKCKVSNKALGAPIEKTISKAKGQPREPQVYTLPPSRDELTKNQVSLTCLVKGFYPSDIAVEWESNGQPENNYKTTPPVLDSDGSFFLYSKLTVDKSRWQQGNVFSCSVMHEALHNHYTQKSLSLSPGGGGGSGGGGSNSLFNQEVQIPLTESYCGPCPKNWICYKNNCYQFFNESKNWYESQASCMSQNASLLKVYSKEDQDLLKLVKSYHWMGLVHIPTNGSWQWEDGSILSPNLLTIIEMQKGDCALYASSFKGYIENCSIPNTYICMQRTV
binder,measurement,setting,value
"anti-NKG2D antibody clone 395 (antibody, V domains shown, From transgenic rabbits; rabbit VH, human VL) VH: QEQLEQSGGGLVTPGGSLKLCCTASGFDFNTFWMTWVRQAPGKGLEWIGCIHGGSGSRDYASWVNGRFTLSRDIDQSTACLQVNSLTAADTAMYYCARPGYRSWSKTFDLWGQGTMVTVSS VL: DIQMTQSPSSLSASVGDRVTITCRASQDISGALNWYQQKPGKAPNLLIYAASSLQSGVPSRFSGSGSGTDYTLTISSLQPEDFATYYCQQANSFPLTFGGGTKVEIK",EC50 (read off the curve),[1],~2 nM
"anti-NKG2D antibody clone 296 (antibody, V domains shown, From transgenic rabbits) VH: EVQLLESGGGLVQPGGSLRLSCAASGFTFSSYAMSWVRQAPGKGLEWVSAIGIGGGGTYYADSVKGRFTISRDNSKNTLYLQMNSLRAEDTAVYHCAKGASFDFINFFPYWGQGTLVTVSS VL: DIQMTQSPSSLSASVGDRVTITCRASQGISNDLAWYQQKPGKAPKLLIYAASSLQSGVPSRFSGSGSGTDFTLTISSLQPEDFATYYCQQTYSTPLTFGGGTKVEIK",Kd,di cyNKG2D ECD Fc avi,710 nM
same,koff,di cyNKG2D ECD Fc avi,0.09 s⁻¹
same,kon,di cyNKG2D ECD Fc avi,130000 M⁻¹ s⁻¹
"anti-NKG2D antibody clone 013 (antibody, V domains shown, From transgenic rabbits) VH: EQSGGGAGGGLVKPGGSLELCCKASGFDFSIYWMSWVRQSPGKGLEWIGRIYGGSSDYTAYASWVNGRFTLSRDIDQSTGCLQLNSLTAADTAMYYCVRLNPSFSRSFDYWGQGTLVTVSS VL: DIQMTQSPSSVSASVGDRVTITCRASQGIFSWLVWYQQKPGKAPELLMYGASTLQSGVPSRFSGSGSGTDFTLTISSLQPEDFATYYCQQGYSTPYTFGQGTKVEIK",EC50,[2],122 nM
"anti-NKG2D antibody 5C5 (IgG) (antibody, V domains shown, also called clone 5C5) VH: not shown VL: SSELTQDPAVSVALGQTVRITCQGDSLRSYYASWYQQKPGQAPVLVIYGKNNRPSGIPDRFSGSSSGNTASLTITGAQAEDEADYYCNSRDSFSIHQNVFGGGTKLTVL",Kd,di huNKG2D ECD Fc avi,63 nM
same,koff,di huNKG2D ECD Fc avi,0.014 s⁻¹
same,kon,di huNKG2D ECD Fc avi,220000 M⁻¹ s⁻¹
